Laboratory results reported in US20220073963A1, “COMPOSITIONS AND METHODS FOR DETECTING AND TREATING TYPE 1 DIABETES AND OTHER AUTOIMMUNE DISEASES” (THE JOHNS HOPKINS UNIVERSITY, priority 2018, published 2022).
No end group written: not given here.

Assays:
HLA-DQ8 monomers = test: Gentle SDS-PAGE assay of peptide binding to DQ8; parameters: species or system human; conditions: 100 μM peptide, 0.5 μM HLA-DQ8 monomers, 37° C., 72 h, pH 5.5
Protocol: Analysis of x-Id peptide binding to DQ8 using gentle SDS-PAGE assay. Gentle SDS-PAGE was used to assess formation of stable complexes between peptides and HLA-DQ8 molecules as previously described (Kim et al., 2013; Sadegh-Nasseri and Germain, 1991). Briefly, 0.5 μM of HLA-DQ8 monomers (provided by NIH tetramer core facility) were treated with thrombin to cleave and remove CLIP peptide. […] Reactions were neutralized, mixed with equal volumes of SDS-PAGE sample buffer containing 0.1% SDS (final concentration) and placed for 15 min at room temperature and run on 10% PAGE gels and silver-stained using a standard protocol.

CD4 T cells [1] = test: CFSE proliferation assay with immobilized peptide-loaded DQ8 complexes; type: cell-based, human; conditions: PBMCs from DQ8+ T1D subjects, 7 days
Protocol: CFSE proliferation assay. Freshly isolated PBMCs were washed twice with warm (37° C.) 1×PBS to remove serum that affect staining and the cells were resuspended in warm (37° C.) 1×PBS at a density of 1.5-2.0×10^6 cells/ml. Cells were labeled with 1 μM CFSE (eBioscience) for 1-2 min at 37° C. with continuous vortexing. The labeling reaction was quenched by adding chilled complete culture media. CFSE-labeled cells were washed in 1×PBS, resuspended in complete media, and plated into 24-well tissue culture plates (1.5-2.0×10^6 cells/well in 1 mL complete culture medium). […] Alternatively, in a separate experiment, to evaluate the mAb-specific proliferative response, purified mAbR and mAbN (described later in the method) concentration of 2.5 and 5 ug, immobilized into the wells of 24-well plates, and used to stimulate CFSE-labeled PBMCs. CFSE labelled cells without stimulation and with CD3-28 stimulation were taken as specific negative and positive controls respectively. After 7 days of incubation, cultures were stained as indicated in FIG. legends and proliferation assessed by determining frequency of CFSElow CD4 T cells.

CD4 T cells [2] = test: CFSE proliferation assay with soluble peptides; type: cell-based, human; conditions: soluble peptide, PBMCs from T1D and HC subjects, 7 days
Protocol: FIG. 14A-14B. […] Freshly isolated CFSE-labelled PBMCs from T1D and HC subjects were cultured in the presence or absence of indicated peptides for 7 days. Samples were stained, acquired and analyzed by FlowJo. CD4 T cells were gated and percentage of divided (CFSElow T cells) were determined. […] All peptides induced significant proliferation from diabetogenic subjects compared to HCs. n=4 per subject group, *p<0.05 by Two-way ANOVA with Sidak's multiple comparisons test. […] (FIG. 14B) Overlays show upregulation of CD69 by gated CFSElow T cells (red lines) versus […] non-proliferating (green) CD4 T cells from three subjects and three independent experiments. Numbers indicate percentages (Mean±SEM) of CFSElow CD4 T cells. CFSE proliferation assay. Freshly isolated PBMCs were washed twice with warm (37° C.) 1×PBS to remove serum that affect staining and the cells were resuspended in warm (37° C.) 1×PBS at a density of 1.5-2.0×10^6 cells/ml. Cells were labeled with 1 μM CFSE (eBioscience) for 1-2 min at 37° C. with continuous vortexing. The labeling reaction was quenched by adding chilled complete culture media. […] After 7 days of incubation, cultures were stained as indicated in FIG. legends and proliferation assessed by determining frequency of CFSElow CD4 T cells.

[3] = biological target: CD4 T cells from T1D subjects (antigen receptors not identified); test: flow cytometry, tetramer staining of CD4 T cells; mimotope-stimulated cultures, NO AB
[4] = biological target: CD4 T cells from T1D subjects (antigen receptors not identified); test: flow cytometry, tetramer staining of CD4 T cells; mimotope-stimulated cultures, AB BLOCKADE (cells preincubated with x-mAbR)
[5] = biological target: CD4 T cells from T1D subjects (antigen receptors not identified); test: flow cytometry, tetramer staining of CD4 T cells; unstimulated cultures
[6] = biological target: CD4 T cells from T1D subjects (antigen receptors not identified); test: flow cytometry, tetramer staining of CD4 T cells; x-Id-stimulated cultures, AB BLOCKADE (cells preincubated with x-mAbR)
[7] = biological target: CD4 T cells from T1D subjects (antigen receptors not identified); test: flow cytometry, tetramer staining of CD4 T cells; x-Id-stimulated cultures, NO AB
[8] = Wang et al., 2018; cited from earlier work

## SHLVEALYLVCGERG (listed as Homo sapiens) [native insulin]
HLA-DQ8 monomers
  formation of SDS-stable complexes with soluble DQ8: did not form detectable DQ8 complexes
CD4 T cells [1]
  stimulation of CD4 T cells (CFSE proliferation and CD69 upregulation): no significant responses

## TP-Id: truncated version of x-Id that lacked cysteine and tryptophan at the terminals (ARQEDTAMVYYFDY)
HLA-DQ8 monomers
  formation of SDS-stable complexes with soluble DQ8: forming SDS-stable complexes

## CARQRFWSGPLFDYW [h-Id, CDR3 peptide of the IGVH04-b+ IgD+ clonotype from HC #1]
HLA-DQ8 monomers
  formation of SDS-stable complexes with soluble DQ8: did not form detectable DQ8 complexes
CD4 T cells [1]
  stimulation of CD4 T cells (CFSE proliferation and CD69 upregulation): no significant responses
CD4 T cells [2]
  proliferation of CD4 T cells (CFSElow): did not elicit proliferation of CD4 T cells from either T1D or HCs

## CLIP-TET (peptide-MHC)
[3]
  tetramer+ among CD4 T cells: 0.09%
[4]
  tetramer+ among CD4 T cells: 0.08%
[5]
  tetramer+ among CD4 T cells: 0.07%
[6]
  tetramer+ among CD4 T cells: 0.08%
[7]
  tetramer+ among CD4 T cells: 0.1%

## CARQEDTAMVYYFDYW (listed as Homo sapiens) [x-Id]
HLA-DQ8 monomers
  formation of SDS-stable complexes with soluble DQ8: forming SDS-stable complexes
CD4 T cells [2]
  proliferation of CD4 T cells (CFSElow): stimulates CD4 T cells from T1D, but not HC, subjects

## SHLVEELYLVAGEEG (listed as Homo sapiens) [superagonist]
[8]
  potency relative to native insulin B:9-23: about 1000 fold

## CARQEDTAMVYYFDYW (peptide-MHC, part only; not given: HLA-DQ8 alpha and beta chains, human, part only, also: loaded in biotinylated HLA-DQ8 monomers tetramerized with PE-streptavidin) [HLA-DQ8 tetramer loaded with x-Id peptide]
[3]
  tetramer+ among CD4 T cells: 1.07%
[4]
  tetramer+ among CD4 T cells: 0.36%
[5]
  tetramer+ among CD4 T cells: 0.56%
[6]
  tetramer+ among CD4 T cells: 0.35%
[7]
  tetramer+ among CD4 T cells: 1.03%
